The data set “crystal structure” deals with the molecule itself. In words: crystal structure.
The data set “native gel or EMSA” concerns the molecule itself. In words: native gel or EMSA.

B1: mouse GATA3 C-terminal zinc finger (amino acid residues 308-370) (domain or fragment, UniProt P23772 308-370, looked up)
chain: SAARRAGTSCANCQTTTTTLWRRNANGDPVCNACGLYYKLHNINRPLTMKKEGIQTRNRKMSS
As for B1, the binding result in the data set “crystal structure” was “binds”.

B2: mouse GATA3 double zinc finger fragment (amino acids 260-370) (domain or fragment)
chain: not shown
For the protein B2, the binding result in “native gel or EMSA” is on record as “binds”.

The values are drawn from article PMC4559223 (Journal of molecular biology, 2008).
